This note sets out measurements from paper PMC3541276.

Assay [1] concerns the target rabbit muscle G-actin (rabbit) (UniProt P68135). Kind of assay: ITC; 20°C; TbCof (0.28 mM, syringe) injected into ATP-G-actin (0.028 mM, cell); ATP-G-buffer: 10 mM Tris, 0.2 mM CaCl2, 0.2 mM ATP, 2.0 mM BME, pH 7.4 (low ionic strength); one-site model.
For assay [2] the target is unchanged. Kind of assay: ITC; 20°C; TbCof (0.15 mM, syringe) injected into ADP-G-actin (0.015 mM, cell); ADP-G-buffer: 10 mM Tris, 0.2 mM CaCl2, 0.2 mM ADP, 2.0 mM BME, pH 7.4 (low ionic strength); one-site model.

Take “ADF/cofilin from Trypanosoma brucei (TbCof), His6 tag cleaved with TEV protease (natural protein)”: in assay [1], the Kd turned out to be 360 nM, the dH is -3.93 kcal/mol and the stoichiometry N was determined as 1. In assay [2], the Kd turned out to be 80 nM, the dH was -9.48 kcal/mol and the stoichiometry N stood at 1.
